T1: GST-NFAT1(1-415) fusion protein (entire NFAT1 regulatory domain) expressed in bacterial cells
T1 sequence (Q13469 whole entry, species assumed, looked up): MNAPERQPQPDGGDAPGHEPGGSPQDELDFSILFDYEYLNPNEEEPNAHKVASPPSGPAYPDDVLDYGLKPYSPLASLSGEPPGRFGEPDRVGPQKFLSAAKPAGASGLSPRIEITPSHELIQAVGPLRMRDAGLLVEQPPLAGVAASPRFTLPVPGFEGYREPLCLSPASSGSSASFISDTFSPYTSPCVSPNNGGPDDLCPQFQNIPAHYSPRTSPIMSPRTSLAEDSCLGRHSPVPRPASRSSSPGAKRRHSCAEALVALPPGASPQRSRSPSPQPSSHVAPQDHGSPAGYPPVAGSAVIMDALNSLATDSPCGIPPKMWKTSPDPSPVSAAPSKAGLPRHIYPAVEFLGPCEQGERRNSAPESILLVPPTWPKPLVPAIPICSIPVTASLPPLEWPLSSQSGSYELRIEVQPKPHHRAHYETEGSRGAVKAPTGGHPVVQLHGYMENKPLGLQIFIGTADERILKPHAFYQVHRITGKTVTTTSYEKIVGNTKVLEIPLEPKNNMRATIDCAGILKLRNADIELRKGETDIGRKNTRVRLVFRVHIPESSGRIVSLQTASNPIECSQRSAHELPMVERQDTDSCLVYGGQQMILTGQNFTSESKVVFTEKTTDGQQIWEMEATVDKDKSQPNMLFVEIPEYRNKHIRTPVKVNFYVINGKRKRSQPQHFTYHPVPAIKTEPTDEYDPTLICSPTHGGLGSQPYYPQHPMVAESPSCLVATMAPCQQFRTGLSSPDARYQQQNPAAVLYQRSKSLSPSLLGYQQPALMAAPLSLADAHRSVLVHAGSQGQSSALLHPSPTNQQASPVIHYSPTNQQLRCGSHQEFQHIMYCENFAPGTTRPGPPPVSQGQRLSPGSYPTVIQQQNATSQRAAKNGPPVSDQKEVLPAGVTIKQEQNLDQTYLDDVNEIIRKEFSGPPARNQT

T2: GST-fused peptide corresponding to the SP-2 motif (amino acids 206-237) of NFAT1, wild type
T2 sequence (Q13469 whole entry, species assumed, looked up): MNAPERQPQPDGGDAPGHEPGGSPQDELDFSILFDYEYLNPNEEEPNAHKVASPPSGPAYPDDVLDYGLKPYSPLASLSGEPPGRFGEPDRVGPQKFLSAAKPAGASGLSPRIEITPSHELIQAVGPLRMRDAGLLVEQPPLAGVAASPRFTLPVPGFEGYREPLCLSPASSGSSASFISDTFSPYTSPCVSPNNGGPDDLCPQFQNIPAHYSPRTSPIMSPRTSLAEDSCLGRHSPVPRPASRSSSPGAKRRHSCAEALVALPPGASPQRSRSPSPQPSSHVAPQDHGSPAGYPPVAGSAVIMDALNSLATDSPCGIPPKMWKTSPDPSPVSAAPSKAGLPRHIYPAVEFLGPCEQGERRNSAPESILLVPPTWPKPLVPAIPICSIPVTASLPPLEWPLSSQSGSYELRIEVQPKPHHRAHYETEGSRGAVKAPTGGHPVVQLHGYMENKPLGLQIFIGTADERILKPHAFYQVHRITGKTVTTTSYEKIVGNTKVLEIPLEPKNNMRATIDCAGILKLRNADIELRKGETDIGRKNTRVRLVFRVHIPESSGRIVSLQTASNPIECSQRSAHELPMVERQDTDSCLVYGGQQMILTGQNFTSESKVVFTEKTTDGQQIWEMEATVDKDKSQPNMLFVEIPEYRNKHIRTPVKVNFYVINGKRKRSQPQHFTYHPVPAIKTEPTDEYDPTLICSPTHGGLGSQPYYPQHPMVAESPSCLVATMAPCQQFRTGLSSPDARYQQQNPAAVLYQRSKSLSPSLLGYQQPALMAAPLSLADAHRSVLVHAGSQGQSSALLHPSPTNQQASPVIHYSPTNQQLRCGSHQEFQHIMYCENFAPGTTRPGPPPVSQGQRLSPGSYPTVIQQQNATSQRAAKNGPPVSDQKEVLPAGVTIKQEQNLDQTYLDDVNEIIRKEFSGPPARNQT


Tests used:
[1] = biological target: T1, GST-NFAT1(1-415) fusion protein (entire …)
[2] = biological target: GST-fused peptide corresponding to the SP-3 motif (amino acids 264-295) of NFAT1, wild type
[3] = biological target: T2, GST-fused peptide corresponding to the …
[4] = biological target: GST-fused SP-3 peptide of NFAT1 (amino acids 264-295) with Ser>Ala substitutions in the serines phosphorylated in cells

Protein | in vitro kinase assay, phosphorylation of GST-NFAT1 (1-415) (autoradiography) [1] | in vitro kinase assay, phosphorylation of GST-peptide [2] | in vitro kinase assay, phosphorylation of GST-peptide [3] | in vitro kinase assay with recombinant kinase, phosphorylation of GST-peptide [4] | in vitro kinase assay with recombinant kinase, phosphorylation of GST-peptide [2]
FLAG-tagged PRKG1 expressed in HEK293 cells and immunoprecipitated with anti-FLAG antibody (protein) MSELEEDFAKILMLKEERIKELEKRLSEKEEEIQELKRKLHKCQSVLPVPSTHIGPRTTRAQGISAEPQTYRSFHDLRQAFRKFTKSERSKDLIKEAILDNDFMKNLELSQIQEIVDCMYPVEYGKDSCIIKEGDVGSLVYVMEDGKVEVTKEGVKLCTMGPGKVFGELAILYNCTRTATVKTLVNVKLWAIDRQCFQTIMMRTGLIKHTEYMEFLKSVPTFQSLPEEILSKLADVLEETHYENGEYIIRQGARGDTFFIISKGTVNVTREDSPSEDPVFLRTLGKGDWFGEKALQGEDVRTANVIAAEAVTCLVIDRDSFKHLIGGLDDVSNKAYEDAEAKAKYEAEAAFFANLKLSDFNIIDTLGVGGFGRVELVQLKSEESKTFAMKILKKRHIVDTRQQEHIRSEKQIMQGAHSDFIVRLYRTFKDSKYLYMLMEACLGGELWTILRDRGSFEDSTTRFYTACVVEAFAYLHSKGIIYRDLKPENLILDHRGYAKLVDFGFAKKIGFGKKTWTFCGTPEYVAPEIILNKGHDISADYWSLGILMYELLTGSPPFSGPDPMKTYNIILRGIDMIEFPKKIAKNAANLIKKLCRDNPSERLGNLKNGVKDIQKHKWFEGFNWEGLRKGTLTPPIIPSVASPTDTSNFDSFPEDNDEPPPDDNSGWDIDF | Three novel candidates-PRKG1, DYRK2 and IRAK4-showed strong activity in this assay | – | – | – | –
FLAG-tagged DYRK2 expressed in HEK293 cells and immunoprecipitated with anti-FLAG antibody (protein) MNDHLHVGSHAHGQIQVQQLFEDNSNKRTVLTTQPNGLTTVGKTGLPVVPERQLDSIHRRQGSSTSLKSMEGMGKVKATPMTPEQAMKQYMQKLTAFEHHEIFSYPEIYFLGLNAKKRQGMTGGPNNGGYDDDQGSYVQVPHDHVAYRYEVLKVIGKGSFGQVVKAYDHKVHQHVALKMVRNEKRFHRQAAEEIRILEHLRKQDKDNTMNVIHMLENFTFRNHICMTFELLSMNLYELIKKNKFQGFSLPLVRKFAHSILQCLDALHKNRIIHCDLKPENILLKQQGRSGIKVIDFGSSCYEHQRVYTYIQSRFYRAPEVILGARYGMPIDMWSLGCILAELLTGYPLLPGEDEGDQLACMIELLGMPSQKLLDASKRAKNFVSSKGYPRYCTVTTLSDGSVVLNGGRSRRGKLRGPPESREWGNALKGCDDPLFLDFLKQCLEWDPAVRMTPGQALRHPWLRRRLPKPPTGEKTSVKRITESTGAITSISKLPPPSSSASKLRTNLAQMTDANGNIQQRTVLPKLVS | Three novel candidates-PRKG1, DYRK2 and IRAK4-showed strong activity in this assay | phosphorylated peptides corresponding to the conserved SP-3 but not the SP-2 motif of the NFAT regulatory domain in vitro | phosphorylated peptides corresponding to the conserved SP-3 but not the SP-2 motif of the NFAT regulatory domain in vitro | – | –
recombinant DYRK2 protein kinase (Upstate Biotechnology), bacterially expressed (protein) MNDHLHVGSHAHGQIQVQQLFEDNSNKRTVLTTQPNGLTTVGKTGLPVVPERQLDSIHRRQGSSTSLKSMEGMGKVKATPMTPEQAMKQYMQKLTAFEHHEIFSYPEIYFLGLNAKKRQGMTGGPNNGGYDDDQGSYVQVPHDHVAYRYEVLKVIGKGSFGQVVKAYDHKVHQHVALKMVRNEKRFHRQAAEEIRILEHLRKQDKDNTMNVIHMLENFTFRNHICMTFELLSMNLYELIKKNKFQGFSLPLVRKFAHSILQCLDALHKNRIIHCDLKPENILLKQQGRSGIKVIDFGSSCYEHQRVYTYIQSRFYRAPEVILGARYGMPIDMWSLGCILAELLTGYPLLPGEDEGDQLACMIELLGMPSQKLLDASKRAKNFVSSKGYPRYCTVTTLSDGSVVLNGGRSRRGKLRGPPESREWGNALKGCDDPLFLDFLKQCLEWDPAVRMTPGQALRHPWLRRRLPKPPTGEKTSVKRITESTGAITSISKLPPPSSSASKLRTNLAQMTDANGNIQQRTVLPKLVS | – | – | – | neither kinase phosphorylated an SP-3 peptide with Ser>Ala substitutions in the specific serine residues known to be phosphorylated in cells | DYRK2 and DYRK1A both displayed strong and selective kinase activity towards the SP-3 motif of NFAT1
FLAG-tagged IRAK4 expressed in HEK293 cells and immunoprecipitated with anti-FLAG antibody (protein) MNKPITPSTYVRCLNVGLIRKLSDFIDPQEGWKKLAVAIKKPSGDDRYNQFHIRRFEALLQTGKSPTSELLFDWGTTNCTVGDLVDLLIQNEFFAPASLLLPDAVPKTANTLPSKEAITVQQKQMPFCDKDRTLMTPVQNLEQSYMPPDSSSPENKSLEVSDTRFHSFSFYELKNVTNNFDERPISVGGNKMGEGGFGVVYKGYVNNTTVAVKKLAAMVDITTEELKQQFDQEIKVMAKCQHENLVELLGFSSDGDDLCLVYVYMPNGSLLDRLSCLDGTPPLSWHMRCKIAQGAANGINFLHENHHIHRDIKSANILLDEAFTAKISDFGLARASEKFAQTVMTSRIVGTTAYMAPEALRGEITPKSDIYSFGVVLLEIITGLPAVDEHREPQLLLDIKEEIEDEEKTIEDYIDKKMNDADSTSVEAMYSVASQCLHEKKNKRPDIKKVQQLLQEMTAS | Three novel candidates-PRKG1, DYRK2 and IRAK4-showed strong activity in this assay | – | – | – | –

From patent US20090178146
